“Also recorded” adds a separate entry of the source. Each block holds one molecule with its values, some of them ahead of it.
Assays:
human BVR = target: T1, human BVR (Homo sapiens, UniProt P53004); experiment: BVR autophosphorylation; type: biochemical; conditions: 20 mM Zn acetate, pH 8.4; also with Mn^+2
T1 construct: made in house; host or cells: E. coli (pGEX 4T-2/hBVR)
T1 sequence (P53004 1-296 A154S/G155D/E160D): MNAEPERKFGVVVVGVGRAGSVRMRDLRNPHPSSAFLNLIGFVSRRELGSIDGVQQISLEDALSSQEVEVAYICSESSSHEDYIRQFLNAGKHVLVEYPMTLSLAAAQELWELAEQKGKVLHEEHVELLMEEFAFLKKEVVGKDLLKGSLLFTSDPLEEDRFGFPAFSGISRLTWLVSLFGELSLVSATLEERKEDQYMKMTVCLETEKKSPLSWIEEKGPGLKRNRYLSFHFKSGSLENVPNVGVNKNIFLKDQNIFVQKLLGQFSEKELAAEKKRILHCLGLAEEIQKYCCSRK
Procedure: In FIG. 9A, effect of tyrosine mutations of BVR on its autophosphorylation is shown. Human wtBVR and BVR with mutations in tyrosine were used in the experiment to determine autophosphorylation of BVR. The reactions were performed as described in the Examples. FIG. 9B is a graph showing that BVR tyrosine kinase activity was checked by incubating 5 μg purified BVR with 5 μg Raytide in 50 μl kinase buffer containing 10 μM labeled ATP for 2 h at 30° C. The aliquots of the reaction were transferred onto P81 Whatman filters and radioactivity due to phosphorylation was measured using a scintillation counter.
FIGS. 10A-B illustrate that autophosphorylation of BVR is an Mn^+2 dependant kinase reaction. […] The effects of different metal ions (30 mM MnCl2, 20 mM MgCl2, 20 mM CaCl2, 20 mM Zn acetate) and their combinations were analyzed as indicated in the text. […] Phosphorylation of wtBVR by IRK in the presence of tyrosine kinase inhibitor genestein (200 μM); DMSO was used as the vehicle for genestein and was included in the control reaction mixture. The reactions were carried out in HEPES buffer (pH 8.0) in the presence of 20 mM MgCl2 as described in the Examples.
(§1) To detect autophosphorylation of BVR, GST-hBVR of wild type (wt) and mutant variants were incubated in 50 mM HEPES buffer (pH 8.4) in the presence of 30 mM MnCl2 and 1 mM DTT for 2 h at 30° C. The reaction was started with the addition of 10 μM ATP labeled with 10 μCi [γ-^32P]-ATP and was stopped with the addition of Laemmli sample buffer. Samples were boiled for 3 min and applied to a 8% SDS-PAGE gels, transferred to a PVDF membrane, and then visualized by autoradiography. […] The reaction was started with the addition of ATP and terminated by adding 120 μl 10% H3PO4. 100 μl aliquots were directly transferred to P81 Whatman filters which were subsequently washed extensively in 0.75% phosphoric acid at room temperature. Finally, the filters were submerged in acetone for 5 min, dried, and retained counts were measured using a Beckman LS 6500 liquid scintillation counter (Beckman Coulter, Fullerton, Calif.).

[1] = system: rat smooth muscle cells (PAC1); experiment: Glucose uptake in PAC1 cells (IGF-dependent); type: cell-based
Procedure: Glucose uptake was tested as described infra. Cells were starved in low glucose serum-depleted DMEM for 20 hours prior to transfer to PBS containing CaCl2, MgCl2. After 2 hrs myristoylated peptides were added to the medium for 2 hours. Thereafter, IGF-1 (50 ng/ml) or insulin (100 nM) was added (10 min) and glucose uptake was tested for 3 min in the presence of methyl-D-glucose,3-O-[methyl-3H]. Subsequently cells were washed 3 times in cold PBS and solubilized in NaOH (0.05 mM). Aliquots were measured for radioactivity. Non-specific binding or diffusion were tested by addition of 300 mM glucose to the cells. This value was deducted from the total counts (on the average <20%) and results were normalized for protein concentration.
FIGS. 15A-B show the effect of hBVR-based peptides on IGF-dependent glucose uptake in rat smooth muscle cells (PAC1) (FIG. 15A) and insulin-dependent glucose uptake in human epithelial kidney (HEK) cells (FIG. 15B). Cells were treated as described for FIG. 14 and glucose uptake was measured as described infra.
The therapeutic utility of various BVR peptides with regard to their ability to modify insulin and insulin growth factor (IGF) mediated cellular glucose uptake was evaluated. Human embryonic kidney cells (HEK293) or rat aortic smooth muscle cells (PAC) were starved in low glucose serum-depleted DMEM for twenty hours prior to transfer to PBS containing CaCl2, MgCl2. After two hours, myristoylated peptides were added to the medium for two additional hours. Thereafter, IGF-1 (50 ng/ml) or insulin (100 nM) was added (10 min) and glucose uptake was tested for three minutes in the presence of methyl-D-glucose,3-O-[methyl-3H]. Subsequently, cells were washed three times in cold PBS and solubilized in NaOH (0.05 mM). Aliquots were measured for radioactivity. Non-specific binding or diffusion was tested by addition of 300 mM glucose to the cells. This value was deducted from the total counts (on the average <20%) and results were normalized for protein concentration.

IRK = target: T2, IRK (Homo sapiens, UniProt P06213); experiment: IRK autophosphorylation in the presence of hBVR-derived peptides; type: biochemical; conditions: 20 μM myristoylated hBVR-based peptide, 45 min, purified IRK
T2 construct: the intracellular kinase domain of the insulin receptor; purchased Biomol International (Plymouth, Pa.)
T2 sequence (P06213 980-1382 limits assumed): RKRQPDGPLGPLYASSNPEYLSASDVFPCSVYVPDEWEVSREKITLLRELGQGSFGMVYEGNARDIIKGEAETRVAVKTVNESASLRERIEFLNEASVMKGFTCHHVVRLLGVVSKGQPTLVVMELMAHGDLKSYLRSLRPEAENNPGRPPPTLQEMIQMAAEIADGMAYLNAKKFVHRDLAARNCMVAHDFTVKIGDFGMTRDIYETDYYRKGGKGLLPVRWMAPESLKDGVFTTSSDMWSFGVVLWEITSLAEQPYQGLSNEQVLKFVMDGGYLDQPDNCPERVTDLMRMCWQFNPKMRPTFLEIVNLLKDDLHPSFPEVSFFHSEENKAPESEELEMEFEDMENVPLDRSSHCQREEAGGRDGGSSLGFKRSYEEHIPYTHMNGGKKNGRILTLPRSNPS
Procedure: FIGS. 13A-B show the effect of hBVR-derived peptides on autophosphorylation of IRK (FIG. 13A) and IRK kinase activity (FIG. 13B). Purified IRK was incubated in the absence or presence of 20 μM of the identified myristoylated hBVR-based peptides for 45 min in an assay system containing 50 mM Hepes pH 7.4, 20 mM MCl2,1 mM EGTA and 20 μM ATP labeled with 5 uCi gamma-P32-ATP. The reaction was stopped with the addition of phosphoric acid and aliquots were applied to P81 Whatman filters. Filters were extensively washed and subjected to counting in a scintillation counter. Total counts of radioactivity of each sample were corrected for non specific binding. […] Activity of IRK toward its substrate, IRS peptide, was tested in the presence of hBVR-based peptides. Experiments were conducted as in described for FIG. 13A with addition of IRS peptide as the substrate.
The effect of hBVR-derived peptides on autophosphorylation of IRK (FIG. 13A) and IRK kinase activity (FIG. 13B) was also investigated.

BVR [2] = experiment: BVR tyrosine phosphorylation in insulin-treated 293A cells (immunoprecipitation/immunoblot); type: cell-based, human; conditions: within 8 min after insulin treatment
Procedure: FIG. 12A-D illustrates that “knock-down” BVR and Y^198 detection increased glucose uptake into 293A cells upon insulin induction. As shown in the graph of FIG. 12A, insulin treatment increases BVR activity. 293A cells were treated with insulin (50 nM) and subsequently used at indicated time points for BVR activity measurement. […] Purified BVR was phosphorylated by IRK for the indicated periods. Reactions were terminated by diluting with PBS and freezing at −20° C. BVR activity was determined as in FIG. 12A, and normalized to that of the control (43.8 μmol per min per mg). […] 293A cells were incubated with insulin and after 8 min or 30 min, subjected to immunoprecipitation using anti-human BVR antibodies. The phosphorylated BVR was visualized by immunoblotting using anti-tyrosine antibodies. ECL system was used for visualization of phosphorylated BVR. In FIG. 12D, the effect of insulin treatment on glucose uptake cells infected with siBVR or Y^198 mutant BVR were treated with insulin for 15 min and subsequently incubated in 1 ml PBS containing 5 mM glucose and 1 μCi/ml-2-deoxy-1 [^3H] glucose (2DG) for 15 min. Cells were washed with cold PBS and lysed by addition of 1% (w/v) SDS to each well. […]
293A Cells were plated in 10 cm plates and transfected with appropriate plasmids. […] Protein concentration was determined by Bradford assay (Bio-Rad, Hercules, Calif.). […]

BVR [3] = experiment: BVR reductase activity in insulin-treated 293A cells; type: cell-based, human; conditions: insulin 50 nM, measured 1 h after treatment
Procedure: FIG. 12A-D illustrates that “knock-down” BVR and Y^198 detection increased glucose uptake into 293A cells upon insulin induction. As shown in the graph of FIG. 12A, insulin treatment increases BVR activity. 293A cells were treated with insulin (50 nM) and subsequently used at indicated time points for BVR activity measurement. […] Purified BVR was phosphorylated by IRK for the indicated periods. Reactions were terminated by diluting with PBS and freezing at −20° C. BVR activity was determined as in FIG. 12A, and normalized to that of the control (43.8 μmol per min per mg). […] 293A cells were incubated with insulin and after 8 min or 30 min, subjected to immunoprecipitation using anti-human BVR antibodies. The phosphorylated BVR was visualized by immunoblotting using anti-tyrosine antibodies. ECL system was used for visualization of phosphorylated BVR. […]
293A cells treated with insulin were lysed in buffer containing a protease inhibitor cocktail and phosphatase inhibitors (10 mM NaF, 1 mM NaVO4). BVR activity was measured at pH 6.7 using NADH as the cofactor as described previously (Huang et al., J. Biol. Chem. 264:7844-9 (1989), which is hereby incorporated by reference in its entirety). The rate of conversion of biliverdin to bilirubin was determined as the increase in absorbance at 450 nm at 25° C. Specific activity is expressed as μmol of bilirubin/min/mg of protein.

[4] = target: T3, Peptide 2, IRS-1 peptide (Arg-Thr-Glu-Ser307-Ile-Thr-Ala-Thr-Ser312-Pro-Ala-Ser315-Met-Val-Gly-Gly-Lys-Pro)
T3 chain: RTESITATSPASMVGGKP

[5] = target: T4, Peptide 1, mutant IRS-1 peptide (Lys-Lys-His-Ala-Asp-Asp-Gly-Ala-Met-Pro-Met-Ser-Pro-Gly-Val-Ala)
T4 chain: KKHADDGAMPMSPGVA

[6] = target: insulin receptor substrate-1 (IRS-1) peptide Y^608
IRS-1 = experiment: BVR kinase activity with IRS-1 as substrate (wt vs G17 mutant); type: biochemical; conditions: mutation in ATP binding domain compared with wtBVR
Procedure: BVR containing mutations on threonine 202 and serine residues, as indicated in the figure, were subjected to autophosphorylation analysis as described in the text. […] 5 μg purified BVR was incubated with 5 μg IRS-1 or HO-1 or HO-2, used as a control for kinase activity, and MBP which was used as the substrate control in 50 μl kinase buffer as described in the Examples. […] Mutant G^17 was compared with wtBVR as a kinase for IRS.
as §1

BVR autophosphorylation in presence of metal ion (human BVR): inhibitory to BVR autophosphorylation
Molecule: CC(=O)[O-].CC(=O)[O-].[Zn+2] [Zn^+2, Zn acetate, reference compound]

IRK autophosphorylation (IRK): increases IRK autophosphorylation
Molecule: KYCCSRK (Biliverdin reductase derived peptide) [C-terminal hBVR peptide, amino acids 290-296 of BVR; mimics insulin signaling]
effectiveness in enhancing cellular glucose uptake compared with IGF-1 ([1]; PAC1 cells, IGF-1 50 ng/ml): as effective as IGF-1
cellular glucose uptake in PAC1 cells ([1]; myristoylated peptide 2 h, uptake of methyl-D-glucose,3-O-[methyl-3H] for 3 min): enhances cellular glucose uptake in PAC1 cells in a dose-dependent manner; also recorded: increases glucose uptake in PAC1 cells in a concentration dependent manner

Molecule: insulin: Human insulin purchased from Sigma-Aldrich
BVR tyrosine phosphorylation (BVR [2]): dramatic increase in phosphorylation
increase in BVR reductase activity (BVR [3]): 2 fold

B1: GST-hBVR fusion protein, wild type (human biliverdin reductase fused to glutathione-S-transferase) (protein)
chain: T1 sequence (P53004 1-296 A154S/G155D/E160D)
phosphorylation of IRS-1 peptide by BVR (32P, cpm) [4]: this peptide is also a suitable substrate for BVR (1198±230 cpm)
phosphorylation of IRS-1 peptide by BVR (32P, cpm) [5]: both the mutated and unmutated peptides were phosphorylated to about the same extent (1049±78 cpm and 1081±183 cpm respectively)
phosphorylation of BVR by IRK in the presence of increasing molar ratio of IRS/BVR [6]: in the presence of increasing amounts of IRS, there was an increase in phosphorylation of BVR by IR up to equimolar ratio of IRS/BVR
phosphorylation of IRS-1 peptide by BVR (32P, cpm) [6]: both the mutated and unmutated peptides were phosphorylated to about the same extent (1049±78 cpm and 1081±183 cpm respectively)

B2: G^17: human BVR point mutant GVGRA to GVARA in ATP binding domain (protein, UniProt P53004 3-296, looked up, variant G17A)
Biliverdin reductase A: AEPERKFGVVVVGVARAGSVRMRDLRNPHPSSAFLNLIGFVSRRELGSIDGVQQISLEDALSSQEVEVAYICSESSSHEDYIRQFLNAGKHVLVEYPMTLSLAAAQELWELAEQKGKVLHEEHVELLMEEFAFLKKEVVGKDLLKGSLLFTAGPLEEERFGFPAFSGISRLTWLVSLFGELSLVSATLEERKEDQYMKMTVCLETEKKSPLSWIEEKGPGLKRNRYLSFHFKSGSLENVPNVGVNKNIFLKDQNIFVQKLLGQFSEKELAAEKKRILHCLGLAEEIQKYCCSRK
IRS phosphorylation by BVR (IRS-1): for the most part, prevented IRS phosphorylation by BVR

Source: US20130344053A1, “Methods of Modifying Insulin Signaling Using Biliverdin Reductase (BVR) and BVR Derived Peptides” (University of Rochester, priority 2010, published 2013)
